Measurements reported in article PMC8044140 (Communications Biology, 2021).

What was measured:
[1] = molecular target: T1, PefR (porphyrin-regulated efflux regulator) (Streptococcus agalactiae, UniProt R4Z9I5); assay: biochemical; assay type: binding
T1 construct: gene AX245_08385; recombinant PefR, C-terminal His tag removed with HRV3C protease; homodimer, two hemes per dimer
T1 sequence (R4Z9I5 1-146): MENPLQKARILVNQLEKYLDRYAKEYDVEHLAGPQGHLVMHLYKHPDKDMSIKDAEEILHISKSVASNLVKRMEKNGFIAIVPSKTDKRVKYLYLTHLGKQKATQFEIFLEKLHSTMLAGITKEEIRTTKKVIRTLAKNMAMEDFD

[2] = molecular target: T2, PefR (holo-PefR, ferrous heme-bound) (Streptococcus agalactiae, UniProt R4Z9I5); assay type: binding
T2 construct: gene AX245_08385; recombinant holo-PefR, homodimer
T2 sequence (R4Z9I5 1-146): T1 sequence (R4Z9I5 1-146)

[3] = molecular target: PefR (porphyrin-regulated efflux regulator) from Streptococcus agalactiae, non-His-tagged (Streptococcus agalactiae); assay: SEC; gel filtration of purified apo-PefR (heme-free); single peak, estimated ~35 kDa against ca. 17 kDa for the monomer
[4] = molecular target: PefR (porphyrin-regulated efflux regulator) from Streptococcus agalactiae, non-His-tagged (Streptococcus agalactiae); assay: SEC; gel filtration of holo-PefR (heme-bound)
PefR [5] = molecular target: T3, PefR (Streptococcus agalactiae, UniProt Q8E4J9 1-146); assay: EMSA; apo (heme-free); EMSA: 20 mM Tris-HCl pH 7.4, 50 mM KCl, 5% glycerol, 0.2 M MgCl2, room temperature; FP: 40 mM HEPES/Na pH 7.4, 500 mM NaCl, 10% glycerol, 10 nM DNA, room temperature; conditions: protein: recombinant; tags: C-terminal HRV3C site-6xHis, His tag removed by HRV3C protease (site remnant remains); chain copies: 2; label: 5'-FAM on antisense strand; blunt
T3 sequence: T1 sequence (R4Z9I5 1-146)

PefR [6] = molecular target: T3, PefR; assay: X-ray crystallography; apo (heme-free), 2.5 A; EMSA: 20 mM Tris-HCl pH 7.4, 50 mM KCl, 5% glycerol, 0.2 M MgCl2, room temperature; FP: 40 mM HEPES/Na pH 7.4, 500 mM NaCl, 10% glycerol, 10 nM DNA, room temperature; conditions: protein: recombinant; tags: C-terminal HRV3C site-6xHis, His tag removed by HRV3C protease (site remnant remains); chain copies: 2; blunt
PefR [7] = molecular target: T3, PefR; assay: fluorescence polarization; apo (heme-free); 1:1 dimer:dsDNA; 500 mM NaCl; EMSA: 20 mM Tris-HCl pH 7.4, 50 mM KCl, 5% glycerol, 0.2 M MgCl2, room temperature; FP: 40 mM HEPES/Na pH 7.4, 500 mM NaCl, 10% glycerol, 10 nM DNA, room temperature; conditions: protein: recombinant; tags: C-terminal HRV3C site-6xHis, His tag removed by HRV3C protease (site remnant remains); chain copies: 2; label: 5'-FAM on antisense strand; blunt
PefR H114A = PefR H114A (Streptococcus agalactiae, UniProt Q8E4J9 1-146, H114A); assay: fluorescence polarization; apo (heme-free); 1:1 dimer:dsDNA; EMSA: 20 mM Tris-HCl pH 7.4, 50 mM KCl, 5% glycerol, 0.2 M MgCl2, room temperature; FP: 40 mM HEPES/Na pH 7.4, 500 mM NaCl, 10% glycerol, 10 nM DNA, room temperature; conditions: protein: recombinant; tags: C-terminal HRV3C site-6xHis, removed; chain copies: 2; label: 5'-FAM on antisense strand; blunt
PefR R89A = PefR R89A (Streptococcus agalactiae, UniProt Q8E4J9 1-146, R89A); assay: EMSA; apo; 1:1 dimer:DNA, 5 uM; EMSA: 20 mM Tris-HCl pH 7.4, 50 mM KCl, 5% glycerol, 0.2 M MgCl2, room temperature; FP: 40 mM HEPES/Na pH 7.4, 500 mM NaCl, 10% glycerol, 10 nM DNA, room temperature; conditions: protein: recombinant; tags: C-terminal HRV3C site-6xHis, removed; chain copies: 2; label: 5'-FAM on antisense strand; blunt
PefR K63A = PefR K63A (Streptococcus agalactiae, UniProt Q8E4J9 1-146, K63A); assay: EMSA; apo; 1:1 dimer:DNA, 5 uM; similar to WT; EMSA: 20 mM Tris-HCl pH 7.4, 50 mM KCl, 5% glycerol, 0.2 M MgCl2, room temperature; FP: 40 mM HEPES/Na pH 7.4, 500 mM NaCl, 10% glycerol, 10 nM DNA, room temperature; conditions: protein: recombinant; tags: C-terminal HRV3C site-6xHis, removed; chain copies: 2; label: 5'-FAM on antisense strand; blunt
PefR K53A = PefR K53A (Streptococcus agalactiae, UniProt Q8E4J9 1-146, K53A); assay: as above; conditions: protein: recombinant; tags: C-terminal HRV3C site-6xHis, removed; chain copies: 2; label: 5'-FAM on antisense strand; blunt
PefR K75A = PefR K75A (Streptococcus agalactiae, UniProt Q8E4J9 1-146, K75A); assay: as above; conditions: protein: recombinant; tags: C-terminal HRV3C site-6xHis, removed; chain copies: 2; label: 5'-FAM on antisense strand; blunt
PefR S67A = PefR S67A (Streptococcus agalactiae, UniProt Q8E4J9 1-146, S67A); assay: as above; conditions: protein: recombinant; tags: C-terminal HRV3C site-6xHis, removed; chain copies: 2; label: 5'-FAM on antisense strand; blunt
PefR S62A = PefR S62A (Streptococcus agalactiae, UniProt Q8E4J9 1-146, S62A); assay: as above; conditions: protein: recombinant; tags: C-terminal HRV3C site-6xHis, removed; chain copies: 2; label: 5'-FAM on antisense strand; blunt

## C=CC1=C(C)C2=Cc3c(C=C)c(C)c4[n]3[Fe][n]3c(c(C)c(CCC(=O)O)c3=CC3=NC(=C4)C(C)=C3CCC(=O)O)=CC1=N2 [heme]
[1]
  Kd: 610 nM

## [C-]#[O+] [carbon monoxide]
[2]
  Kd: 0.11 and 0.033 μM

## PefR (porphyrin-regulated efflux regulator) from Streptococcus agalactiae, non-His-tagged (natural protein)
[3]
  stoichiometry N: 2
[4]
  stoichiometry N: 2

B1: pefRCD operator 28 bp (EMSA) (dsDNA)
DNA 1: TAAAATAGTTCTCACGATAACTATTAAA
DNA 2: TTTAATAGTTATCGTGAGAACTATTTTA
PefR [5]
  binding result: binds

B2: pefRCD operator for crystal (dsDNA)
DNA 1: TAAAATAGTTCTCACGATAACTATTAAAT
DNA 2: ATTTAATAGTTATCGTGAGAACTATTTTA
PefR [6]
  binding result: binds

B3: nontarget DNA (dsDNA)
DNA 1: GTTTTAAAACGACCTCTGTAGCGGTCGTTAAAGG
DNA 2: CCTTTAACGACCGCTACAGAGGTCGTTTTAAAAC
PefR [5]
  binding result: no binding

B4: pefAB operator 38 bp (dsDNA)
DNA 1: GCTATTATAAAATAGTTCTCACGATAACTAAAATAATG
DNA 2: CATTATTTTAGTTATCGTGAGAACTATTTTATAATAGC
PefR [7]
  Kd: 40 nM
PefR H114A
  Kd: ~25 nM

B5: target DNA (operon not stated) (dsDNA)
DNA 1: TAAAATAGTTCTCACGATAACTATTAAA
DNA 2: TTTAATAGTTATCGTGAGAACTATTTTA
PefR R89A
  binding result: no binding
PefR K63A
  binding result: binds
PefR K53A
  binding result: binds
PefR K75A
  binding result: binds
PefR S67A
  binding result: binds
PefR S62A
  binding result: binds
